Reference: patent US20240192201, “BRAIN NATRIURETIC PEPTIDE APTAMER FLUORESCENCE DETECTION DEVICE BASED ON SMART PHONE AND SENSING METHOD OF SAME” (TianJin University, published 2024)

Target: BNP (brain natriuretic peptide) (UniProt P16860 P16860:103-134)
Assay: FRET recovery from carboxylated graphene oxide quencher (40 ug/ml), 100 nmol/L aptamer, pH 7.2-7.4, room temperature, 35 min
Conditions: label: 5'-FAM
Source text: The signal response relationship between BNP concentration and fluorescence intensity obtained by detecting BNP in the present invention, its specific detection steps are as follows: [0080] (1) Blank control experiment: individually detect the fluorescence intensity of 100 nmol/L aptamer solution, and set the excitation wavelength as 492 nm, the emission wavelength as 519 nm, and the emission spectrum detection range as 505-610 nm, then use the obtained results as controls. [0081] (2) Mix 100 nmol/L of aptamer solution with 40 ug/ml of carboxylated graphene oxide solution by equal volume, and control the pH value of the solution at 7.2-7.4, and then leave it at room temperature for about 20 min. Then add BNP solution having a series of concentration gradients, respectively, leave it at room temperature for about 35 min, next take out an appropriate amount of mixed solution for fluorescence detection, and record fluorescence spectra at different concentrations. […] With the increase of the BNP concentration, the fluorescence intensity of the solution gradually increases. [0082]

BNP (brain natriuretic peptide), sequence (P16860 103-134, one chain of several): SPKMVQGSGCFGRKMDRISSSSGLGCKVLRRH

B1: FAM-labelled BNP aptamer (ssDNA)
DNA: TTTTTTTATACGGGAGCCAACACCACCTCTCACATTATATTGTGAATACTTCGTGCTGTTTAGAGCAGGTGTGACGGAT
B1: binds.
